Measured values taken from patent publication US20250011363A1, “OPTIMIZED SHORTENED PEPTIDE THAT BINDS TO ACETYLCHOLINE RECEPTOR, AND USE THEREOF” (SKINMED CO., LTD., priority 2021, published 2025).

target: acetylcholine receptor (Homo sapiens, UniProt P02708); experiment: SPR binding affinity (RU) of optimized 5mer/6mer/7mer peptides, Examples 6-7; conditions: 6mer-1 Top sequence; SPR; peptides tested at 10 μM
In short: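 Single-concentration screen: 10 μM peptide, SPR detection, binding expressed as RU.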

Sequence of acetylcholine receptor (P02708 21-457): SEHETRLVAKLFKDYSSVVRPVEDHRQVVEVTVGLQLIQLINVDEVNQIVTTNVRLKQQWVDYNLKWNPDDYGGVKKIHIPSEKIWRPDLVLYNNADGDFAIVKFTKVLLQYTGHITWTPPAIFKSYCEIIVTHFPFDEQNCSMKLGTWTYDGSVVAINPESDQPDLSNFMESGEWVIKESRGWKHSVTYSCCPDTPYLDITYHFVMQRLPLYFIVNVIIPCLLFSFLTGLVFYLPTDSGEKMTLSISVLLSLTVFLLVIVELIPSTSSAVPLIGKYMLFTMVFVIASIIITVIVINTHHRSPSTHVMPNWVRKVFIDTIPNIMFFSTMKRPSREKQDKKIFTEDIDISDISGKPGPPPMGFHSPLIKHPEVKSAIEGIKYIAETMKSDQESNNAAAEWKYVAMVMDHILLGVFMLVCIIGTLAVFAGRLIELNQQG

Substance | Binding affinity [Ru]
6mer-1-203 (RRQITR) | 142
6mer-1-227 (KRLVQK) | 139
6mer-1-261 (KRWVTR) | 121
6mer-1-228 (KRVIYK) | 139
6mer-1-383 (RKRRTK) | 148
6mer-1-291 (KKQIRK) | 142
6mer-1-308 (KRRITR) | 135
6mer-1-346 (KKRIYR) | 123
6mer-1-354 (KKVFLK) | 153
6mer-1-313 (RRWFCK) | 148

same assay, conditions: 6mer-2 Top sequence; SPR; peptides tested at 10 μM

Substance | Binding affinity [Ru]
6mer-2-153 (RVYSRR) | 124
6mer-2-186 (KQICRK) | 127
6mer-2-156 (KGLQRR) | 127
6mer-2-14 (RGRQKK) | 153
6mer-2-17 (RWVTRR) | 142
6mer-2-41 (KQLCKR) | 142
6mer-2-33 (RQFRKK) | 142
6mer-2-39 (RWRYRK) | 137

same assay, conditions: SPR, Resonance Units; 5mer Bottom sequence (bottom combinations); peptides tested at 10 μM

Substance | Binding affinity [Ru]
5mer-763 (RCHVR) | 30
5mer-767 (RFHFK) | 12
5mer-780 (RDSHK) | 27
5mer-1007 (RDMMR) | 30
5mer-1021 (KITHK) | 26
5mer-611 (KDHIR) | 33
5mer-638 (KHCIR) | 33
5mer-1034 (RFAKK) | 14
5mer-1050 (KPEDR) | 31
5mer-1082 (RACFR) | 11
5mer-745 (RMEIK) | 14
5mer-960 (RNPGK) | 14
5mer-1097 (KPDIR) | 28
5mer-961 (KIANR) | 32

same assay, conditions: SPR, Resonance Units; peptides tested at 10 μM; 6mer-1 Bottom sequence

Substance | Binding affinity [Ru]
6mer-1-1197 (KRPMAK) | 21
6mer-1-1167 (KRHMMK) | 42
6mer-1-1059 (RRETVK) | 39
6mer-1-1058 (KRFPWR) | 21
6mer-1-1103 (KREDNK) | 27
6mer-1-1025 (KRFAKR) | 33
6mer-1-1020 (KKMEAK) | 38

same assay, conditions: SPR, Resonance Units; peptides tested at 10 μM; 6mer-1 Bottom sequence (Table 11)

Substance | Binding affinity [Ru]
6mer-1-665 (KKCDGK) | 21
6mer-1-791 (RKPDDK) | 13
6mer-1-628 (RRENEK) | 23
6mer-1-702 (KRDWVK) | 31
6mer-1-609 (RKNPVR) | 24
6mer-1-782 (KKNAWK) | 30
6mer-1-757 (RKDNEK) | 26
6mer-1-728 (RRDNAR) | 23
6mer-1-623 (RRTDWR) | 21
6mer-1-729 (KKKSGK) | 23
6mer-1-658 (RKKEMK) | 20
6mer-1-731 (RRIKAR) | 18

same assay, conditions: SPR, Resonance Units; peptides tested at 10 μM; 6mer-2 Bottom sequence

Substance | Binding affinity [Ru]
6mer-2-717 (KCPGKR) | 15
6mer-2-892 (KDENRK) | 27
6mer-2-965 (KPWFKR) | 36
6mer-2-857 (KHTEKK) | 20
6mer-2-651 (KNADRR) | 21
6mer-2-814 (RYMERK) | 28
6mer-2-790 (RCAGRR) | 23
6mer-2-704 (KDWHRK) | 20
6mer-2-829 (KKKIRR) | 22
6mer-2-953 (KESVKK) | 25
6mer-2-722 (RNEHRR) | 21
6mer-2-679 (RYSAKK) | 20
6mer-2-848 (RMTERK) | 29
6mer-2-948 (RPPFRR) | 28
6mer-2-865 (RHCNRK) | 16
6mer-2-714 (KIDVRK) | 30
6mer-2-657 (RKHERK) | 32
6mer-2-702 (KEMIKR) | 18

same assay, conditions: SPR, Resonance Units; peptides tested at 10 μM; 6mer-2 Top sequence

Substance | Binding affinity [Ru]
6mer-2-549 (KQLCKK) | 142
6mer-2-600 (RSQLKK) | 139
6mer-2-438 (RLLCRK) | 131
6mer-2-507 (RGICKR) | 145
6mer-2-479 (KWRLKK) | 154

same assay, conditions: SPR, Resonance Units; peptides tested at 10 μM; 6mer-2 Top sequence (Table 12)

Substance | Binding affinity [Ru]
6mer-2-401 (RSILRK) | 153
6mer-2-255 (RLRRKK) | 139
6mer-2-252 (KVFRKK) | 148
6mer-2-297 (RSLSRR) | 139
6mer-2-289 (RLLQKK) | 146
6mer-2-258 (KRIYRR) | 125
6mer-2-253 (KLRSRR) | 145
6mer-2-241 (KQLTKR) | 135

same assay, conditions: SPR, peptides at 10 μM; 6mer-2 Bottom sequence

Substance | Binding affinity [Ru]
6mer-2-1072 (KPHWKR) | 29
6mer-2-1058 (RMPWKK) | 24
6mer-2-1024 (RFHNKR) | 37
6mer-2-1116 (KMEVKK) | 31
6mer-2-1098 (KHPKRR) | 28
6mer-2-1086 (KNDWRK) | 21
6mer-2-1113 (KPNFRK) | 43
6mer-2-1044 (KHTDKK) | 41
6mer-2-1019 (RNTWKK) | 23

same assay, conditions: SPR, peptides tested at 10 μM; 5mer Top sequence

Substance | Binding affinity [Ru]
5mer-487 (RLVTK) | 62
5mer-57 (KQLYR) | 73
5mer-60 (RLFTK) | 86
5mer-210 (KVYYR) | 67
5mer-448 (RQIRK) | 74
5mer-388 (KLFCK) | 78
5mer-303 (KGRYR) | 87
5mer-76 (RGYRR) | 80
5mer-498 (KLISK) | 53
5mer-81 (RGIYR) | 79
5mer-180 (KQRYR) | 74
5mer-364 (RWITR) | 62
5mer-208 (KLICR) | 80
5mer-469 (KSRRR) | 69
5mer-357 (RGFRK) | 54
5mer-379 (KSRLR) | 79

same assay, conditions: SPR, peptides tested at 10 μM; 5mer Top sequence (top combinations)

Substance | Binding affinity [Ru]
5mer-594 (KQYSR) | 50
5mer-235 (KGYSK) | 70
5mer-552 (RLYSR) | 63
5mer-591 (RVYTK) | 61
5mer-596 (KLQQR) | 56
5mer-548 (KWLCK) | 60
5mer-550 (RQQSR) | 83
5mer-533 (RLVYK) | 84

same assay, conditions: SPR, peptides tested at 10 μM; 6mer-1 Bottom sequence

Substance | Binding affinity [Ru]
6mer-1-1198 (RRATER) | 28

same assay, conditions: SPR, peptides tested at 10 μM; 6mer-1 Bottom sequence (Table 11)

Substance | Binding affinity [Ru]
6mer-1-970 (RRCCAR) | 38
6mer-1-955 (RKECFK) | 23
6mer-1-975 (RKASIK) | 22
6mer-1-826 (KKAHMR) | 31
6mer-1-824 (KKMNIK) | 12
6mer-1-800 (RREHIR) | 15
6mer-1-901 (RKPNGR) | 35
6mer-1-897 (RRPSIK) | 24
6mer-1-815 (RRFEMR) | 23
6mer-1-802 (RKYHGR) | 32
6mer-1-940 (RKPEDR) | 29

same assay, conditions: SPR, peptides tested at 10 μM; 6mer-1 Top sequence

Substance | Binding affinity [Ru]
6mer-1-542 (KRWFRR) | 128
6mer-1-432 (RKGIQK) | 139
6mer-1-425 (RKGVQK) | 131
6mer-1-476 (KRRRQK) | 154
6mer-1-558 (RRLIQR) | 139
6mer-1-461 (RRGYTR) | 142
6mer-1-447 (RRRQQK) | 146

same assay, conditions: SPR, peptides tested at 10 μM; 6mer-1 Top sequence (top combinations)

Substance | Binding affinity [Ru]
6mer-1-48 (RRWVRR) | 124
6mer-1-11 (KRQFTK) | 139
6mer-1-72 (RKVQLK) | 139
6mer-1-80 (KRVQQR) | 133
6mer-1-100 (RKWISK) | 146
6mer-1-146 (KRGRRR) | 139
6mer-1-179 (KRSQYR) | 148
6mer-1-52 (RRRFLR) | 131
6mer-1-4 (RKSFYK) | 139
6mer-1-60 (RKSIQK) | 139
6mer-1-108 (RRLLLR) | 139

same assay, conditions: SPR; XRRQRR-6mer and RRQRRX-6mer

Substance | Binding affinity, relative value to the RRQRR sequence
3602 (ARRQRR) [compound 3602] | 129

same assay, conditions: SPR; peptides tested at 10 μM; 5mer Bottom sequence

Substance | Binding affinity [Ru]
5mer-813 (RAHVR) | 21
5mer-1113 (RHMER) | 19
5mer-899 (RYTFR) | 31
5mer-1194 (RDNGK) | 18
5mer-1142 (KTENK) | 24
